{
  "source": "patent US20190161555A1",
  "about": "(ALLIGATOR BIOSCIENCE, published 2019)",
  "binders": {"B1": {"name": "1210/1211 (antibody, IgG1, V domains shown)", "VH": "not shown", "VL": "DIQMTQSPSSLSASVGDRVTITCRASQSISSYLNWYQQKPGKAPKLLIYAASSLQSGVPSRFSGSGSGTDFTLTISSLQPEDFATYYCQQTYGYLHTFGQGTKLEIK", "notes": "5T4 antibody"}, "B2": {"name": "1206/1207 (antibody, V domains shown)", "VH": "EVQLLESGGGLVQPGGSLRLSCAASGFTFSGSSMSWVRQAPGKGLEWVSSIYYSGSGTYYADSVKGRFTISRDNSKNTLYLQMNSLRAEDTAVYYCARYGRNVHPYNLDYWGQGTLVTVSS", "VL": "B1 VL with T91G, G93Y, H96P", "notes": "5T4 antibody"}},
  "key": {"[1]": {"biological_target": "T1, 5T4-Fc (human, UniProt Q13641 32-355, limits assumed)", "T1 construct": "obtained from Peter L. Stern, University of Manchester; also called h5T4-Fc; recombinant 5T4", "T1 sequence (looked up)": "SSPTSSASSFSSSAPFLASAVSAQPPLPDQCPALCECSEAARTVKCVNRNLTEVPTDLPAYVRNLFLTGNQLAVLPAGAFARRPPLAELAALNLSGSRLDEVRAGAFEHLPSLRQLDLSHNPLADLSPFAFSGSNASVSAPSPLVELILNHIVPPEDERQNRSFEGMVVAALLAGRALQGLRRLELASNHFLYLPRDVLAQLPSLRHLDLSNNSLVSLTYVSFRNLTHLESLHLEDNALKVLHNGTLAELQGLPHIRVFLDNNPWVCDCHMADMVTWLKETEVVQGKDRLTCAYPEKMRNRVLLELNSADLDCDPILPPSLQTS", "experiment": "ELISA, plates coated with 5T4-Fc", "method": "ELISA was performed using a standard protocol. Plates (#655074, Greiner Bio-One GmbH, Germany) were pre-coated with 0.5 μg/ml 5T4-Fc (obtained from Peter L. Stern, University of Manchester) overnight. 5T4 antibodies were diluted from 6 to 1.5×10⁻³ μg/ml in 1:4 dilutions and added in duplicates of 50 μl to each well. Binding was detected with rabbit anti-h kappa L-chain-HRP (P0129, Dako Denmark) and the ELISA was developed with SuperSignal ELISA PICO Chemiluminescent substrate (Thermo Scientific Pierce, Rockford, Ill. USA) for 2-10 minutes and read in an automated microplate based multi-detection reader (FLUOstar OPTIMA, Netherlands)."}, "[2]": {"biological_target": "T2, mouse 5T4 (mouse, UniProt Q9Z0L0 32-426)", "T2 construct": "whole, on cells; also called murine 5T4", "T2 sequence (looked up)": "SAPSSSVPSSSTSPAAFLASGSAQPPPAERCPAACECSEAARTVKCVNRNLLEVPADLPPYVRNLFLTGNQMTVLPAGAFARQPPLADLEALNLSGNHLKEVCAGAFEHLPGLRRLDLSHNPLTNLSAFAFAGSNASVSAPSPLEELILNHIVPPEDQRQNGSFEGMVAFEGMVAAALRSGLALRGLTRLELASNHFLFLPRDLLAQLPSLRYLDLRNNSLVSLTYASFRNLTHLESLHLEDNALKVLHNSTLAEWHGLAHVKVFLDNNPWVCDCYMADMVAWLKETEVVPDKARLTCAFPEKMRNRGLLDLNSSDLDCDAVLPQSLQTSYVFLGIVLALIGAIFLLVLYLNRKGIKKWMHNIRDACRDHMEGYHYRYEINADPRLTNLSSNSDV", "experiment": "flow cytometry, mouse 5T4-transfected cells"}, "[3]": {"biological_target": "T3, human/mouse 5T4 chimera E4", "T3 construct": "on stably transfected CHO cells", "experiment": "flow cytometry, cells with 5T4 chimera; % positive cells over that of the best clone", "method": "(§1) Epitope mapping was performed by investigation of loss of binding by the antibodies using a panel of human/mouse chimeric 5T4 constructs by flow cytometry. […] Two strategies were used for the epitope mapping as illustrated in FIG. 5. In one approach, seven human/mouse 5T4 chimeras were constructed based on dividing 5T4 into seven different domains (FIG. 5). By replacing each domain with the corresponding mouse sequence seven human/mouse 7 5T4 human/mouse chimeras were generated. The chimeras were generated using the human protein 5T4 sequence NP_006661.1 (reference mRNA sequence NM_006670.4) and the corresponding mouse sequence NP_035757.2 (reference mRNA sequence NM_011627.4). The human/mouse chimeric DNA constructs, as well as human and mouse wild-type 5T4, were cloned into pcDNA3.1 expression vectors. […] In the other approach, cells transfected with a human/mouse 5T4 chimera (Woods et al., 2002) was used, in which mouse sequence in amino acid 173-420 replaced the human sequence (FIG. 5). As controls human 5T4 and mouse 5T4-transfected cells were used.\n(§2) For flow cytometric analysis, cells were stained with different 5T4 antibodies diluted in FACS buffer (PBS, 0.5% BSA). […] Samples were analysed by FACSverse (BD Biosciences, Heidelberg, Germany) and % positive cells were determined. To compensate for variations in % 5T4 positive cells in the various transfected populations, binding levels were normalized within each chimera by dividing % positive cells for each clone with % positive cells for the clones resulting in the highest % positive cells (% pos cellsclonX/% positive cellsₘₐₓ). A normalized value≤0.75 was defined as mAb binding being dependent on the replaced region, whereas a normalized value≤0.25 was defined as complete dependence."}, "[4]": {"biological_target": "T4, human/mouse 5T4 chimera E5", "T4 construct": "on stably transfected CHO cells", "experiment": "flow cytometry, cells with 5T4 chimera; % positive cells over that of the best clone", "method": "as §1, §2"}, "[5]": {"biological_target": "T5, human/mouse 5T4 chimera E2", "T5 construct": "on stably transfected CHO cells", "experiment": "flow cytometry, cells with 5T4 chimera; % positive cells over that of the best clone", "method": "as §1, §2"}, "[6]": {"biological_target": "T6, human/mouse 5T4 chimera E3", "T6 construct": "on stably transfected CHO cells", "experiment": "flow cytometry, cells with 5T4 chimera; % positive cells over that of the best clone", "method": "as §1, §2"}, "[7]": {"biological_target": "T7, human/mouse 5T4 chimera E7", "T7 construct": "on stably transfected CHO cells", "experiment": "flow cytometry, cells with 5T4 chimera; % positive cells over that of the best clone", "method": "as §1, §2"}, "[8]": {"biological_target": "T8, human/mouse 5T4 chimera E6", "T8 construct": "on stably transfected CHO cells", "experiment": "flow cytometry, cells with 5T4 chimera; % positive cells over that of the best clone", "method": "as §1, §2"}, "[9]": {"biological_target": "T9, human/mouse 5T4 chimera E1", "T9 construct": "on stably transfected CHO cells", "experiment": "flow cytometry, cells with 5T4 chimera; % positive cells over that of the best clone", "method": "as §1, §2"}},
  "note": "Substitutions are numbered along the chain they refer to.",
  "data": [
    {"binder": "B1", "values": [
      {"measurement": "EC50", "setting": "[1]", "result": 0.48, "unit": "nM"},
      {"measurement": "binding result", "setting": "[2]", "result": "no binding"},
      {"measurement": "normalized % positive cells", "setting": "[3]", "result": 0.69},
      {"measurement": "normalized % positive cells", "setting": "[4]", "result": 0.89},
      {"measurement": "normalized % positive cells", "setting": "[5]", "result": 0.02},
      {"measurement": "normalized % positive cells", "setting": "[6]", "result": 0.9},
      {"measurement": "normalized % positive cells", "setting": "[7]", "result": 0.96},
      {"measurement": "normalized % positive cells", "setting": "[8]", "result": 0.89},
      {"measurement": "normalized % positive cells", "setting": "[9]", "result": 0.99}
    ]},
    {"binder": "B2", "values": [
      {"measurement": "EC50", "setting": "[1]", "result": 0.64, "unit": "nM"},
      {"measurement": "binding result", "setting": "[2]", "result": "no binding"},
      {"measurement": "normalized % positive cells", "setting": "[3]", "result": 0.52},
      {"measurement": "normalized % positive cells", "setting": "[4]", "result": 0.9},
      {"measurement": "normalized % positive cells", "setting": "[5]", "result": 0.74},
      {"measurement": "normalized % positive cells", "setting": "[6]", "result": 0.25},
      {"measurement": "normalized % positive cells", "setting": "[7]", "result": 0.94},
      {"measurement": "normalized % positive cells", "setting": "[8]", "result": 0.94},
      {"measurement": "normalized % positive cells", "setting": "[9]", "result": 0.96}
    ]}
  ]
}
